Data: US11472844B2, “Peptidomimetics, method of synthesis and uses thereof” (priority 2017, dated 2022)
Like-named read-outs stand apart in the source and are kept apart here.

Columns and labels:
living human neutrophils = assay: Live microscopy of neutrophils infected with Shigella flexneri; format: cell-based; details: live cells
Protocol: Neutrophil infection. Human purified neutrophils were cultured in glass-bottom dishes (Mattek) for live fluorescent microscopy in a RMPI 1640 (Life Technologies) culture medium supplemented with 10% of heat inactivated Human Serum (Sigma-Aldrich). Neutrophils (5.10^5 cell/mL in 2 mL) were infected with exponentially-grown Shigella flexneri 5a pGFP at a Multiplicity Of Infection (MOI) 20 in RMPI 1640 (Life Technologies) culture medium supplemented with 10 mM Hepes (Life Technologies) at 37° C. Infected neutrophils were centrifuged at 2000 rpm for 10 min prior imaging.
Live epifluorescence microscopy. Viable neutrophils infected with S. flexneri pGFP were imaged on a Definite focus live microscope (Zeiss) equipped with a temperature control chamber (37° C.) and a 63× oil immersion objective. Images were acquired every 60 s. Z-stack images were taken with […] step-size increments. Obtained Z-stack images were processed with Fiji software to generate a Movie and the corresponding extracted images are shown in FIG. 16a.

human colonic mucus = assay: Fluorescent labelling of human colonic mucus layer; format: binding; details: 1 μg/mL
Protocol: (§1) Colon explant surgical collection. In summary, human colon segments (ascending, descending, and sigmoid colon) were obtained from fully informed patients undergoing surgery for colon carcinoma and were analyzed anonymously. Patient written consent was obtained, according to the French bioethics law. None of the patients had undergone radiotherapy or chemotherapy. According to the pathologist's examination rules for the longitudinally bisected colon, a healthy segment of tissue, which was distant from the tumor region and devoid of metastatic cells, was removed. Tissues were processed according to the French Government guidelines for research on human tissues and the French Bioethics Act with the authorization no RBM 2009-50.
Fixation and staining procedures. For microscopy studies, purified or cultured cells and polymerized lactoferrin were resuspended onto 24-well plates containing 12 mm coverslips in RMPI 1640+10 mM Hepes (when cultured in the autologous plasma) and centrifuged at 300×g for 10 min. Culture media were removed and cells were fixed in 4% Paraformaldehyde (PFA) for two hours. Fixed cells were washed three times in PBS+0.1% saponin (Sigma-Aldrich), prior immunolabeling with primary antibodies in the same buffer for 1 hour (Triton 0.1% can alternatively be used for cell permeabilization). After three additional washes in PBS+0.1% saponin, secondary antibodies and fluorescent markers were incubated for one hour. […]
(§2) Antibodies, fluorescent markers. For immunofluorescence assay, lactoferrin was detected with a mouse anti-lactoferrin primary monoclonal antibody (Hycult biotech, clone 265-1K1, 1:50 dilution) and an anti-mouse-FITC conjugated secondary antibody (1:1000). Nuclei were detected with DAPI (Life Technologies), Lyophilized MUB40 peptides (MUB40#1 (SEQ ID NO: 3)-Cy5, MUB40#2 (SEQ ID NO: 4)-Cy5, MUB40#3 (SEQ ID NO: 5)-Cy5, MUB40#4 (SEQ ID NO: 6)-Cy5, MUB40#1 (SEQ ID NO: 3)-Dylight, RI-MUB40 (SEQ ID NO: 2)-Cy5, and RI-MUB40 (SEQ ID NO: 2)-Biotin) were solubilized in a phosphate buffer pH8 at a 1 mg/mL concentration and used at a 1:1000 dilution. […]

trypsin = trypsin (Sus scrofa, UniProt P00761); details: trypsin digestion, 37°C, pH8, followed up to 24 h
Sequence of trypsin (P00761 9-231): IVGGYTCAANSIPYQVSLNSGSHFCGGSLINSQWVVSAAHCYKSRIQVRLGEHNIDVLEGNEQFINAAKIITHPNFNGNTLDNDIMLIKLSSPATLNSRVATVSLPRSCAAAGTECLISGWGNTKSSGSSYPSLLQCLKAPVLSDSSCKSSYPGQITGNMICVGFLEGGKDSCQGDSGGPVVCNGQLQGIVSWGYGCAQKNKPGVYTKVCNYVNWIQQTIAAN
Protocol: Trypsin proteolysis. MUB40 (SEQ ID NO: 3)-Cy5 and RI-MUB40 (SEQ ID NO: 2)-Cy5 were dissolved in 50 mM ammonium bicarbonate, pH 8. Prior to digestion and owing to the propensity of maleimide derivatives to undergo ring-opening in a basic environment (Fontaine et al., 2015), we incubated both peptides at 37° C. overnight. Ring-opening completion was checked before trypsin addition. […] Lyophilized trypsin (Thermo scientific) was reconstituted using 50 mM acetic acid, diluted with 50 mM ammonium bicarbonate and added to the peptide solution so as to obtain a final peptide concentration of 0.25 mg/mL and a protease to protein ratio of 1:20 (w/w). Samples were directly incubated on the injection sampler thermostated at 37° c. HPLC and LC-MS analyses were performed as previously described above, applying a 15% to 40% linear gradient of acetonitrile in 10 mM ammonium acetate over 20 minutes.
Hydrolysis experiments were done in solution at 37° c., pH8 and monitored by HPLC by measuring the peak area of the remaining intact peptides.

[1] = Analytical gel filtration (size exclusion chromatography); format: physicochemical; details: for relative masses estimated from standard proteins' elution volume: 10 μg/ml in 20 mM phosphate buffer; for relative masses estimated from standard proteins' elution volume / experimental Mr: 150 mM NaCl, pH7.4; for experimental Mr: 20 mM phosphate buffer; for oligomeric organization: phosphate buffer, vs theoretical MW
Protocol: Size Exclusion Chromatography. Gel filtration was performed using an Agilent 1100 system (Agilent Technologies; Palo Alto, Calif., USA) and monitored by absorbance at 280 nm. MUB40 peptides were solubilized in the gel filtration buffer (20 mM phosphate buffer, 150 mM NaCl, pH7.4) at a concentration of 10 μg/ml, 100 μg/ml, or 1 mg/ml), separately injected on a Yarra™ 3μ SEC-2000 300×7.8 mm column (Phenomenex, Le Pecq, France), and eluted at a 0.5 ml/min flow rate. The column was calibrated with a mixture of standards proteins (ribonuclease A, 13.7 kDa; carbonic anhydrase 29 kDa; ovalbumin 44 kDa; GE Healthcare) complemented with a custom synthetic peptide of our own library (peptide x, 5.1 kDa; Institut Pasteur). The logarithm of the molecular weights were plotted versus the corresponding partition coefficients (Kay=(Ve−Vo)/(Vc−Vo); Ve, elution volume; Vo, void volume; Vc, geometric column volume), giving log(Mr)=2,3108−2,2361Kav as a calibration curve equation.

[2] = test system: colonic mucinous carcinoma; assay: Mucinous carcinoma immunofluorescent staining; parameters: species or system human; details: together with anti-Muc2 antibody, 1 μg/mL
Protocol: FIG. 3. Mucinous carcinoma immunofluorescent staining with MUB40 #1 (SEQ ID NO: 3)-Cy5 (MUB40-Cy5) and anti-Muc2 antibody (with a secondary antibody conjugated with FITC).
Muc2 was stained with an anti-Mucin2 antibody (green). Tissue was additionally stained with MUB40-Cy5 (1 μg/mL, magenta). DNA was stained with Dapi (blue).

[3] = test system: Colonic goblet cell granules; assay: Fluorescent labelling of colonic goblet cell granules on fixed slides; format: cell-based, human; details: 1 μg/mL
Protocol: as §1, §2

[4] = Coïc et al., 2012; cited from earlier work

CC[C@@H](C)[C@@H](NC(=O)[C@@H](CCCCN)NC(=O)[C@@H](CCCCN)NC(=O)[C@@H](Cc1ccccc1)NC(=O)[C@@H](CCC(=O)O)NC(=O)CNC(=O)[C@@H](CC(=O)O)NC(=O)CNC(=O)[C@@H](Cc1ccc(O)cc1)NC(=O)[C@@H](CCC(=O)O)NC(=O)[C@@H](CC(C)C)NC(=O)[C@@H](Cc1ccccc1)NC(=O)[C@@H](CCCCN)NC(=O)[C@@H](CC(=O)O)NC(=O)[C@@H](CC(N)=O)NC(=O)[C@@H](Cc1ccccc1)NC(=O)[C@H]1CCCN1C(=O)[C@@H](C)NC(=O)CNC(=O)[C@@H](CCC(=O)O)NC(=O)[C@@H](CCCCN)NC(=O)[C@@H](Cc1ccccc1)NC(=O)[C@@H](CC(=O)O)NC(=O)[C@@H](CC(N)=O)NC(=O)[C@@H](CC(=O)O)NC(=O)[C@@H](CC(=O)O)NC(=O)[C@H](NC(=O)[C@@H](CC(N)=O)NC(=O)[C@@H](CC(=O)O)NC(=O)[C@@H](CCC(N)=O)NC(=O)[C@@H](Cc1ccccc1)NC(=O)[C@@H](Cc1ccc(O)cc1)NC(=O)[C@H](NC(=O)[C@H](NC(=O)[C@H](NC(=O)[C@@H](Cc1ccccc1)NC(=O)[C@@H](CS)NC(C)=O)[C@H](C)CC)C(C)C)[C@H](C)O)[C@H](C)O)C(=O)NCC(=O)N[C@H](CCC(=O)O)C(=O)N[C@H](C)C(=O)N[C@@H](C(N)=O)[C@H](C)O [RI-MUB40]
crossing of plasma membrane of living cells (living human neutrophils): do not cross plasma membranes
labelling of / binding to human colonic mucus (human colonic mucus): validated

MUB40#1: 40-amino acid L-peptide, MUB70 C-terminal part, with N-ter added cysteine; L counterpart of RI-MUB40 (CTAEGIKKFEGDGYELFKDNFPAGEKFDNDDTNDQFYTVIF; MUB40-1 probe with Cysteine at N-terminal extremity)
degradation by trypsin (in words) (trypsin; listed as MUB40): rapidly degraded
degradation by trypsin (in words) (trypsin; listed as MUB40 #1): almost completely degraded within 3 h
relative masses estimated from standard proteins' elution volume [1]: 15.9
experimental Mr [1]: 15.9 kDa
oligomeric organization [1]: trimer
labelling of colonic mucinous carcinoma [2]: similarly labelled

MUB40#2: overlapping 40-amino acid peptide covering the MUB70 sequence (CGYTDETIPYSTAEGIKKFEGDGYELFKDNFPAGEKFDNDD; MUB40-2 probe with Cysteine at N-terminal extremity)
relative masses estimated from standard proteins' elution volume [1]: 22.0
experimental Mr [1]: 22.0 kDa
oligomeric organization [1]: tetramers

MUB40#3: overlapping 40-amino acid peptide covering the MUB70 sequence (CDQMLRQDDLDGYTDETIPYSTAEGIKKFEGDGYELFKDNF; MUB40-3 probe with Cysteine at N terminal extremity)
relative masses estimated from standard proteins' elution volume [1]: 20.5
experimental Mr [1]: 20.5 kDa
oligomeric organization [1]: tetramers

MUB40#4: overlapping 40-amino acid peptide covering the MUB70 sequence (CVHVQYIDGETDQMLRQDDLDGYTDETIPYSTAEGIKKFEG; MUB40-4 probe with Cysteine at N terminal extremity)
relative masses estimated from standard proteins' elution volume [1]: 20.4
experimental Mr [1]: 20.4 kDa
oligomeric organization [1]: tetramers

B1: MUB70-Cy5: MUB70 (SEQ ID NO: 11) conjugated to Cy5 (conjugate, listed as Lactobacillus reuteri)
chain: VHVQYIDGETDQMLRQDDLDGYTDETIPYSTAEGIKKFEGDGYELFKDNFPAGEKFDNDDTNDQFYTVIF
modifications: also: conjugated to Cy5 (site not given here)
labelling of colonic goblet cell granules [3]: not the case

B2: MUB70: 70 AA peptidic marker of human colonic mucus from L. reuteri MUcus Binding Associated Domains (peptide, listed as Lactobacillus reuteri)
chain: VHVQYIDGETDQMLRQDDLDGYTDETIPYSTAEGIKKFEGDGYELFKDNFPAGEKFDNDDTNDQFYTVIF
oligomeric organization [4]: trimer
